From patent US20230080224A1 (AGENCY FOR SCIENCE TECHNOLOGY AND RESEARCH, published 2023)
Substitutions are numbered along the chain they refer to.

T1: human ALPPL2 (recombinant protein) (human, UniProt P10696 20-503)
T1 chain: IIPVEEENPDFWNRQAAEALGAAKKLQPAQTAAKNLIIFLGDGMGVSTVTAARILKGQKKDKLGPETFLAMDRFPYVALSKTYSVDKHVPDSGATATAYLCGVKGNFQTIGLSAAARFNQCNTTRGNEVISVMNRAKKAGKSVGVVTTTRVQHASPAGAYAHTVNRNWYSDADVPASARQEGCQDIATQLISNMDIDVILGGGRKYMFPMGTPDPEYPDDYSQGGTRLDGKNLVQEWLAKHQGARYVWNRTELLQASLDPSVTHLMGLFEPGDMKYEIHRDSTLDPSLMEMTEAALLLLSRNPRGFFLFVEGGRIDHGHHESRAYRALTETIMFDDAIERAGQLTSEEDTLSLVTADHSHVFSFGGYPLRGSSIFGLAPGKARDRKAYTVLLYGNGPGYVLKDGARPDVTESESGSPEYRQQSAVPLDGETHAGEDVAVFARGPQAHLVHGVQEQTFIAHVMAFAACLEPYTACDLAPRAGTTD

T2: ALPI (screening and SPR/ELISA protein) (UniProt P09923 20-503, limits assumed)
T2 sequence (looked up): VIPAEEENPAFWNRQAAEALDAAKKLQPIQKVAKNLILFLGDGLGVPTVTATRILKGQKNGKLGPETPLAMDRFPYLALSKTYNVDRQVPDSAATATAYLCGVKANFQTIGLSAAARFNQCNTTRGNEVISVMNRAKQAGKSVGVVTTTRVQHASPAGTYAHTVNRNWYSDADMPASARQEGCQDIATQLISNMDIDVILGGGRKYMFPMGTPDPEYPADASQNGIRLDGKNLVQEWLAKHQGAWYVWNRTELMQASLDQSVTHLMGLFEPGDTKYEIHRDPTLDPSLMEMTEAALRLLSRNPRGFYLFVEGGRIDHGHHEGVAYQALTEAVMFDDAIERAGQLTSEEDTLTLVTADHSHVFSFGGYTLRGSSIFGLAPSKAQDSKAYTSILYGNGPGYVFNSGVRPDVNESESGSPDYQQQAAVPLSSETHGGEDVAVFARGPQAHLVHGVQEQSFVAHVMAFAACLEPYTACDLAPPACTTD

B1: humanized C15 (antibody, human IgG1, V domains shown)
VH: EVQLVESGGGLVQPGGSLRLSCAASGFSFSSSYYMCWVRQAPGKGLEWIACIYTTYGGTWYASWAKGRFTISRDNSKNTLYLQMNSLRAEDTAVYYCARSSISDVTYFNLWGQGTLVTVSS
VL: DIQMTQSPSSLSASVGDRVTITCQASQSISNYLAWYQQKPGKVPKLLIYRASTLESGVPSRFSGSGSGTDFTLTISSLQPEDVATYYCQSYYDNNNYAFGQGTKVEIK
notes: CDRs grafted to a human IgG1 framework; recombinant; also called hC15
B2: AB1C29 (antibody, V domains shown)
VH: QEHLEESGGGLVKPEGSLTLTCTASGFSFSSSYYMCWVRQAPGKGLEWIACIYPDDGNTYYASWAKGRFTISKTSSTTVTLQMTSLTAADTATYFCARALAYYAYVDGGHSYAINDFDLWGPGTLVTVSS
VL: QVLTQTPSSVSAAVGGTVTINCQSSQSVFSNDYFSWYQQKPGQPPKLLIYDASRLASGVPSRFKGSGSGTQFTLTISGVQCDDAATYYCQGTYYSSAWYNAFGGGTEVVVK
notes: Rabbit antibody cloned from a single B cell
B3: AB2C124 (antibody, V domains shown)
VH: QEQLVESGGGLVQPEGSLTLTCTASGFSFSSSYFMCWVRQAPGKGLEWIACIYTGDGNNYYASWAKGRFTISKTSSTTVTLQMTSLTAADTATYFCSRGGSYYAYGYAGYDYYPDAFDYWGPGTLVTVSS
VL: DIVMTQTPASVEVAVGGTVTIKCQASQSISSYLSWYQQKPGQPPKLLIYRASTLASGVPSRFKGSGSGTQFTLTISDLECADAATYYCQSYYYSSSGSYGFGGGTEVVVK
notes: as for B2
B4: AB2C136 (antibody, V domains shown)
VH: QEQLEESGGDLVKPGASLTLTCTASGFSFNSNYYMCWVRQAPGKGLEWIACIYTGIVVPTYYASWAKGRFTISKTSSTTVTLQMTSLTAADTATYFCARDPYVGSSYIYNLWGPGTLVTVSS
VL: LVMTQTPSPVSAAVGSTVTISCQSSQSVYNNNNLAWYQQKPGQPPKLLIYSASSLASGVPSRFKGSGSGTQFTLTISGVECDDAATYYCAGYKTYSNNENAFGGGTEVVVK
notes: as for B2
B5: AB2C129 (antibody, V domains shown)
VH: QSLEESGGDLVKPGASLTLTCTASGFSFSSSYWICWVRQAPGKGLEWIACIYAGSSGDTYYASWAKGRFTISKTSSTTVTLQTTSLTAADTATYFCARAEYIDGYADYTYTTLYYFDLWGPGTPVTVSS
VL: DVVMTQTPASVSEPVGGTVTINCQASESINSWLAWYQQKPGQPPKLLIYSASTLASGVPSRFKGSGSGIEFTLTISDLECADAATYFCQSYYSFSRFAFGGGTEVVVK
notes: as for B2
B6: AB1C10 (antibody, V domains shown)
VH: QSLEESGGDLVKPGASLTLTCTASGFDFSSNGMCWVRQAPGKGLEWIACIYVDSSDNTNYASWVNGRFTISRTSSTTVTLQMTSLTAADTATYFCARGYGYVGSAMDLWGQGTLVTVSS
VL: DIVMTQTPASVEAAVGGTVTIKCQASQSINNELSWYQQKPGQRPKLLIYGASTLESGVPSRFSGSGSGTEFTLTISDLECADAATYYCQSAYYSSSSSYANTFGGGTEVVVK
notes: as for B2
B7: AB1C25 (antibody, V domains shown)
VH: B6 VH with N57S, N59Y
VL: B6 VL with N30S, V111A, K112A
notes: as for B2
B8: AB1C31 (antibody, V domains shown)
VH: B6 VH with T79D, Q81K
VL: B6 VL with N30S
notes: as for B2
B9: AB1C12 (antibody, V domains shown)
VH: QSLEESGGDLVKPGASLTLTCTASGFSFSSSYWISWVRQAPGKGLEWIACIAIGSSGTTYYASWAKGRFTISKTSSTTVTLQMTSLTAADTATYFCARSGDGYTYVELWGPGTLVTVSS
VL: DVVMTQTPASVSEPVGGTVTIKCQASQSISSYLAWYQQKPGQPPKLLIYRASTLASGVPSRFKGSGSGTQFTLTISDLECADAATYYCQNYYDIDDSDNTFGGGTEVVVK
notes: as for B2
B10: AB2C127 (antibody, V domains shown)
VH: QSLEESGGDLVKPGASLTLTCTASGFSFNSYYMCWVRQAPGKGLEWIACISGGSSDNTYYASWAKGRFTTSKTSSTTVTLQMTSLTAADTATYFCARDIPRSGYFGCDLWGPGTLVTVSS
VL: VVMTQTPASVSEPVGGTVTIKCQASQNIYSNLAWYQQKPGQRPKLLIYGASNLESGVPSRFKGSGSGTEYTLTISNLECADAATYYCQSTVYNSNYANTFGGGTEVVVK
notes: as for B2
B11: AB2C133 (antibody, V domains shown)
VH: QSLEESGGDLVKPGASLTLTCTASGLDFSSSYWICWVRQAPGKGLEWIGCIKTATETTVYASWAKGRFTISKTSSTTVTLQMTSLTAADTATYLCAKTYADNGGYINLWGPGTLVTVSS
VL: LVMTQTPSSVSAAVGGTVTINCQASQNIYNNLAWYQQKPGQRPKLLIYGASNLESGVPSRFKGSGSGTEYTLTISDLECDDAATYYCQSADLTSSINVFGGGTEVVVK
notes: as for B2
B12: AB1C19 (antibody, V domains shown)
VH: QSLEESGGDLVQPEGSLTLTCKASGFDFSTNIMCWVRQAPGKGLEWIACIYAGDGSTYYASWVNGRFTISKTSSTTVTLQMTSLTAADTATYFCARASTYWNYGYAGYGYYPGYFNLWGPGTLVTVSS
VL: DIVMTQTPASVEAAVGGTVTIKCQASQSIISALAWYQQKPGQPPKLLIYAASTLASGVPSRFKGSGSGTQFTLTISDLECADAATYYCQTYAYSTKSNYGSVFGGGTEVVVK
notes: as for B2
B13: AB2C131 (antibody, V domains shown)
VH: QSLEESGGGLVQPEGSLTLTCTASGFSFSSSYYMCWVRQAPGKGLEWIACIYAGSTFSTYYASWAKGRFTISKTSSTTVTLQMTSLTAADTATYFCARSDSYYTYGYAGYAYAIFNLWGPGTLVTVSS
VL: LVMTQTPSSVSAAVGGTVTINCQASESIYSNLAWYQQKPGQPPKLLIYLASTLASGVPSRFKGSGSGTEFTLTISDLECADAATYYCQSAYYSSSADIAFGGGTEVVVK
notes: as for B2
B14: AB2C102 (antibody, V domains shown)
VH: QQQLEESGGDLVQPGASLTLTCTASGFSFNSNYWMCWGRQAPGKGLEWIGCILFGNTDTYYANWAKGRFTISKTSSTTVTLQMTSLTAADTATYFCARSVSGVGSAWNLWGPGTLVTVSS
VL: IVMTQTPSSKSVPVGDTVTINCQASESVYNNNHLAWYQQKPGQSPKLLIYLASILDSGVPSRFKGSGSGTQFTLTISDVVCDDAATYYCAGYKGITIDGSAFGGGTELVVK
notes: as for B2

biological target: T3, human ALPPL2 (recombinant protein) (human, UniProt P10696 20-503, limits assumed); experiment: SPR, Biacore T200, ligand captured by streptavidin on CM5 chip, antibody as analyte
T3 construct: biotinylated where captured on streptavidin
Procedure: (§1) Select clones (C4, C15, C131, C12, C18, C36 and C53) were humanized by grafting the CDRs to a human IgG1 framework. […] Surface plasmon resonance was studied using Biacore T200. Ligands (e.g. ALPPL2 or ALPP) were immobilized on biosensors CM5 chips captured with the streptavidin. Ligands-loaded sensors were then incubated with different concentrations of analyte (recombinant expressed humanized antibody clones) to measure affinity.

Row | binding result | Binder
1 | binds | B1

biological target: human ALPP (recombinant protein) (human, UniProt P05187 23-506, limits assumed); experiment: as above
Sequence (P05187 23-506 limits assumed): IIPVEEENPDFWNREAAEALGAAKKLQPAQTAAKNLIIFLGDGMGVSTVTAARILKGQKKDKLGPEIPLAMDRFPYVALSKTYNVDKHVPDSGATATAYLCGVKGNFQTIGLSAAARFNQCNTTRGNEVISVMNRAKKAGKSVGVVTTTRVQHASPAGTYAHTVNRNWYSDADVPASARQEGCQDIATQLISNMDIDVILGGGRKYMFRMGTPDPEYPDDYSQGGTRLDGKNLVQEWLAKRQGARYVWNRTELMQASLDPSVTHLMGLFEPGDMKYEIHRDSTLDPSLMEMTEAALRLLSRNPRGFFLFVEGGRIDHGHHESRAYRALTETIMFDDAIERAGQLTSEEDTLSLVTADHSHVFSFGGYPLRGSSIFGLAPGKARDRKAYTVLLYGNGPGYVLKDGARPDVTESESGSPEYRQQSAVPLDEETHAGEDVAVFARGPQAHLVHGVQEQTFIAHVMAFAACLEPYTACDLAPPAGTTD
Procedure: as §1

Row | binding result | Binder
2 | binds | B1

Biological target: T1, human ALPPL2 (recombinant protein)
Experiment: BLI; single concentration

Row | Kd [nM] | Binder
3 | 0.2 | B2
4 | 1.6 | B3
5 | 0.1 | B4
6 | 0.001 | B5
7 | 0.15 | B6
8 | 1.4 | B7
9 | 0.4 | B8
10 | 0.8 | B9
11 | 1.7 | B10
12 | 1 | B11
13 | 1.69 | B12
14 | 8 | B13
15 | 0.5 | B14

biological target: T3, human ALPPL2 (recombinant protein); experiment: screen of rabbit B-cell clones by ELISA and FACS
Excerpt: (§2) Specific clones were screened and identified by ELISA and high throughput flow cytometry (FIG. 3). Rabbit kidney cells were transfected with either truncated (for ELISA screen) or full-length (for FACS screen) ALPI and ALPPL2.

Row | binding result | Binder
16 | binds | B2
17 | binds | B3
18 | binds | B4
19 | binds | B5
20 | binds | B6
21 | binds | B7
22 | binds | B8
23 | binds | B9
24 | binds | B10
25 | binds | B11
26 | binds | B12
27 | binds | B13
28 | binds | B14

biological target: T2, ALPI (screening and SPR/ELISA protein); experiment: screen of rabbit B-cell clones by ELISA and FACS
Excerpt: as §2

Row | binding result | Binder
29 | no binding | B2
30 | no binding | B3
31 | no binding | B4
32 | no binding | B5
33 | no binding | B6
34 | no binding | B7
35 | no binding | B8
36 | no binding | B9
37 | no binding | B10
38 | no binding | B11
39 | no binding | B12
40 | no binding | B13
41 | no binding | B14
